Key:
[1] = target: ST-pro-factor D-His (UniProt P00746)
[2] = target: pro-factor D-His (UniProt P00746)
[3] = target: purified plasma factor B, P00751
[4] = target: ST-pro-factor D-His, P00746
[5] = target: pro-factor D-His, P00746
pro-factor D-His, P00746, sequence (P00746 whole entry, looked up): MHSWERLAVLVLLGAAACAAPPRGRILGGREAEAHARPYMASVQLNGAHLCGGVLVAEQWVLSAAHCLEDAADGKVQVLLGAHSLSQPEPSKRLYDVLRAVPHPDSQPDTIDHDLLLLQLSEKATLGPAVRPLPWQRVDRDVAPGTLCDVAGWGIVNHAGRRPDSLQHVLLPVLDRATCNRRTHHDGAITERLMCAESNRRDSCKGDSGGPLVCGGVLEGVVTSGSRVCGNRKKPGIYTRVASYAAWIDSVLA

ST-pro-factor D-His, P00746, sequence (P00746 whole entry, looked up): as above
purified plasma factor B, P00751, sequence (P00751 26-764): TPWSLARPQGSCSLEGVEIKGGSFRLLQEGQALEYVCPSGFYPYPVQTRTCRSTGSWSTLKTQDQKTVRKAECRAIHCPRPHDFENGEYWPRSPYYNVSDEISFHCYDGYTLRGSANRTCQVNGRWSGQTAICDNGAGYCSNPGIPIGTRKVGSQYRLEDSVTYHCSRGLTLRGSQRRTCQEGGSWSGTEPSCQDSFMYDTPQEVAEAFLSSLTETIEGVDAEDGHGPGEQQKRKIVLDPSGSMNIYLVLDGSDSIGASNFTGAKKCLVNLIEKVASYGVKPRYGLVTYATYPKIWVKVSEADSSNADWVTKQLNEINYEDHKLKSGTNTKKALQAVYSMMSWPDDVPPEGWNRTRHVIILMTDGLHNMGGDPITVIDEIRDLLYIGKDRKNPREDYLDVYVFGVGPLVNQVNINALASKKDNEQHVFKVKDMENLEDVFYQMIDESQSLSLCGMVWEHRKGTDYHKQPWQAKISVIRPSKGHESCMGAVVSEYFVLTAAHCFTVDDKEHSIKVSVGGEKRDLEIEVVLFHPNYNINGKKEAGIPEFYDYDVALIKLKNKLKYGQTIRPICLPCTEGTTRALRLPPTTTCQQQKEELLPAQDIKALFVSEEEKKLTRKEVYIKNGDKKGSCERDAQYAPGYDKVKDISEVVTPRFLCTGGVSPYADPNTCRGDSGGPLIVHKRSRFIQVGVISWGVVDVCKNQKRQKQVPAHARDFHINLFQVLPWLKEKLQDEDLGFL
pro-factor D-His, sequence (P00746 other isoform, or with tags, fused parts or gaps): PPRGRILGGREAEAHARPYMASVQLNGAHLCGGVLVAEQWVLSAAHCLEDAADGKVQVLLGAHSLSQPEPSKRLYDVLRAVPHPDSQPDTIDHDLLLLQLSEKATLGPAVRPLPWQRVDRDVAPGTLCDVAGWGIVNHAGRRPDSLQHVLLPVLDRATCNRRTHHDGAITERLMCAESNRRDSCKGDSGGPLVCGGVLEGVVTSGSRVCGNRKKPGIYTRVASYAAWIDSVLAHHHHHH
ST-pro-factor D-His, sequence (P00746 other isoform, or with tags, fused parts or gaps): as above

B1: recombinant MASP-1 (CCP1-CCP2-SP) fragment (enzyme, part only; not given: amino-terminal Strep tag)
chain, part: GNECPELQPPVHGKIEPSQAKYFFKDQVLVSCDTGYKVLKDNVEMDTFQIECLKDGTWSNKIPTCKIVDCRAPGELEHGLITFSTRNNLTTYKSEIKYSCQEPYYKMLNNNTGIYTCSAQGVWMNKVLGRSLPTCLPVCGLPKFSRKLMARIFNGRPAQKGTTPWIAMLSHLNGQPFCGGSLLGSSWIVTAAHCLHQSLDPKDPTLRDSDLLSPSDFKIILGKHWRLRSDENEQHLGVKHTTLHPKYDPNTFENDVALVELLESPVLNAFVMPICLPEGPQQEGAMVIVSGWGKQFLQRFPETLMEIEIPIVDHSTCQKAYAPLKKKVTRDMICAGEKEGGKDACSGDSGGPMVTLNRERGQWYLVGTVSWGDDCGKKDRYGVYSYIHHNKDWIQRVTGVRNHHHHHH
cleavage of pro-factor D (Western blot) [1]: only full length MASP-3 (lane 2) and the MASP-1 CCP1-CCP2-SP) fragment (lane 5) cleaved ST-pro-factor D-His6
cleavage of pro-factor D (Western blot) [2]: Identical results were obtained with the pro-factor D-His6 polypeptide (not shown)

B2: human MASP-3 (protein)
chain: HTVELNNMFGQIQSPGYPDSYPSDSEVTWNITVPDGFRIKLYFMHFNLESSYLCEYDYVKVETEDQVLATFCGRETTDTEQTPGQEVVLSPGSFMSITFRSDFSNEERFTGFDAHYMAVDVDECKEREDEELSCDHYCHNYIGGYYCSCRFGYILHTDNRTCRVECSDNLFTQRTGVITSPDFPNPYPKSSECLYTIELEEGFMVNLQFEDIFDIEDHPEVPCPYDYIKIKVGPKVLGPFCGEKAPEPISTQSHSVLILFHSDNSGENRGWRLSYRAAGNECPELQPPVHGKIEPSQAKYFFKDQVLVSCDTGYKVLKDNVEMDTFQIECLKDGTWSNKIPTCKIVDCRAPGELEHGLITFSTRNNLTTYKSEIKYSCQEPYYKMLNNNTGIYTCSAQGVWMNKVLGRSLPTCLPECGQPSRSLPSLVKRIIGGRNAEPGLFPWQALIVVEDTSRVPNDKWFGSGALLSASWILTAAHVLRSQRRDTTVIPVSKEHVTVYLGLHDVRDKSGAVNSSAARVVLHPDFNIQNYNHDIALVQLQEPVPLGPHVMPVCLPRLEPEGPAPHMLGLVAGWGISNPNVTVDEIISSGTRTLSDVLQYVKLPVVPHAECKTSYESRSGNYSVTENMFCAGYYEGGKDTCLGDSGGAFVIFDDLSQRWVVQGLVSWGGPEECGSKQVYGVYTKVSNYVDWVWEQMGLPQSVVEPQVER
factor B cleavage (Coomassie-stained SDS-PAGE), with C3(H2O) [3]: either MASP-3 or pro-factor D are able to mediate factor B cleavage, as long as C3 is present
cleavage of pro-factor D (Western blot), 80 ng MASP-3, 70 ng substrate, 75 minutes at 37 C [4]: MASP-3 cleaves approximately 50% of pro-factor D into factor D (lane 1)

B3: catalytically-inactive MASP-1 (S646A) (protein)
chain: HTVELNNMFGQIQSPGYPDSYPSDSEVTWNITVPDGFRIKLYFMHFNLESSYLCEYDYVKVETEDQVLATFCGRETTDTEQTPGQEVVLSPGSFMSITFRSDFSNEERFTGFDAHYMAVDVDECKEREDEELSCDHYCHNYIGGYYCSCRFGYILHTDNRTCRVECSDNLFTQRTGVITSPDFPNPYPKSSECLYTIELEEGFMVNLQFEDIFDIEDHPEVPCPYDYIKIKVGPKVLGPFCGEKAPEPISTQSHSVLILFHSDNSGENRGWRLSYRAAGNECPELQPPVHGKIEPSQAKYFFKDQVLVSCDTGYKVLKDNVEMDTFQIECLKDGTWSNKIPTCKIVDCRAPGELEHGLITFSTRNNLTTYKSEIKYSCQEPYYKMLNNNTGIYTCSAQGVWMNKVLGRSLPTCLPVCGLPKFSRKLMARIFNGRPAQKGTTPWIAMLSHLNGQPFCGGSLLGSSWIVTAAHCLHQSLDPEDPTLRDSDLLSPSDFKIILGKHWRLRSDENEQHLGVKHTTLHPQYDPNTFENDVALVELLESPVLNAFVMPICLPEGPQQEGAMVIVSGWGKQFLQRFPETLMEIEIPIVDHSTCQKAYAPLKKKVTRDMICAGEKEGGKDACAGDAGGPMVTLNRERGQWYLVGTVSWGDDCGKKDRYGVYSYIHHNKDWIQRVTGVRN
cleavage of pro-factor D (Western blot) [5]: The catalytically-inactive full length MASP-3 (S679A; lane 3) and MASP-1 (S646A; lane 3) failed to cleave either substrate
cleavage of pro-factor D (Western blot) [4]: The catalytically-inactive full length MASP-3 (S679A; lane 3) and MASP-1 (S646A; lane 3) failed to cleave either substrate
